Test results reported in patent publication US20150203556A1 (UAB RESEARCH FOUNDATION, published 2015).

B1: IL-19/IL-20R2 binary complex (other)
chain 1: LRRCLISTDMHHIEESFQEIKRAIQAKDTFPNVTILSTLETLQIIKPLDVCCVTKNLLAFYVDRVFKDHQEPNPKILRKISSIANSFLYMQKTLRQCQEQRQCHCRQEATNATRVIHDNYDQLEVHAAAIKSLGELDVFLAWINKNHEVMFSA
chain 2: DEVAILPAPQQLSVLSTNMKHLLMWSPVIAPGETVYYSVEYQGEYESLYTSHIWIPSSWCSLTEGPECDVTDDITATVPYNLRVRATLGSQTSAWSILKHPFNRQSTILTRPGMEITKDGFHLVIELEDLGPQFEFLVAYWRREPGAEEHVKMVRSGGIPVHLETMEPGAAYCVKAQTFVKAIGRYSAFSQTECVEVQGEA
notes: IL-19 with IL-20R2 that carries no FC: amine coupled on the chip, or soluble; also called IL-19+soluble IL-20R2
B2: soluble IL-20R2 (receptor)
chain: B1 chain 2
notes: also called IL-20R2* (amine coupled IL-20R2)
B3: IL-20/IL-20R2 binary complex (other)
chain 1: MLKTLNLGSCVIATNLQEIRNGFSEIRGSVQAKDGNIDIRILRRTESLQDTKPANRCCLLRHLLRLYLDRVFKNYQTPDHYTLRKISSLANSFLTIKKDLRLCHAHMTCHCGEEAMKKYSQILSHFEKLEPQAAVVKALGELDILLQWMEETE
chain 2: B1 chain 2
notes: also called 20 + 20R2; IL-20+soluble IL-20R2
B4: IL22R1ddq-FCkh (MONO) (Fc fusion)
chain: AHAPEDPSDLLQHVKFQSSNFENILTWDSGPEGTPDTVYSIEYKTYGERDWVAKKGCQRITRKSCDLTVETGDLQELYYARVTAVSAGGRSATKMTDRFSSLQHTTLKPPDVTCISKVRSIQMIVHPTPTPIRAGDGHRLTLEDIFHDLFYHLELQVNRTYQMHLGGKQREYEFFGLTPDTEFLGTIMICVPTWAKESAPYMCRVKTLPDRTWTYSGSGGGGPSVFIFPPKIKDVLMISLSPIVTCVVVDVSEDDPDVQISWFVNNVEVHTAQTQTHREDYNSTLRVVSALPIQHQDWMSGKEFKCKVNNKDLPAPIERTISKPKGSVRAPQVYVLPPPCEEMTKKQVTLYCMVTDFMPEDIYVEWTNNGKTELNYKNTEPVLDSDGSYFMYSKLRVEKKNWVERNSYSCSVVHEGLHNHHTTKSFSRTPGKGLEASGGLNDIFEAQKIEWHEGTGHHHHHH
B5: IL-20R1-FC (Fc fusion)
chain: VPCVSGGLPKPANITFLSINMKNVLQWTPPEGLQGVKVTYTVQYFIYGQKKWLNKSECRNINRTYCDLSAETSDYEHQYYAKVKAIWGTKCSKWAESGRFYPFLETQIGPPEVALTTDEKSISVVLTAPEKWKRNPEDLPVSMQQIYSNLKYNVSVLNTKSNRTWSQCVTNHTLVLTWLEPNTLYCVHVESFVPGPPRRAQPSEKQCARTLKDQSSEFKAKGSGGGGPSVFIFPPKIKDVLMISLSPIVTCVVVDVSEDDPDVQISWFVNNVEVHTAQTQTHREDYNSTLRVVSALPIQHQDWMSGKEFKCKVNNKDLPAPIERTISKPKGSVRAPQVYVLPPPCEEMTKKQVTLYCMVTDFMPEDIYVEWTNNGKTELNYKNTEPVLDSDGSYFMYSKLRVEKKNWVERNSYSCSVVHEGLHNHHTTKSFSRTPGKGLEASGGLNDIFEAQKIEWHEGTGHHHHHH
notes: also called IL-20R-fc

Experiments:
[1] = target: T1, IL-20R1 triple mutant M3 (UniProt Q9UHF4 29-245); test: SPR, IL-19 co-injected with M3 over an IL-20R2 coupled Biacore chip
T1 construct: range 29-245; also called IL-20R1 site 3 mutant
T1 sequence (looked up): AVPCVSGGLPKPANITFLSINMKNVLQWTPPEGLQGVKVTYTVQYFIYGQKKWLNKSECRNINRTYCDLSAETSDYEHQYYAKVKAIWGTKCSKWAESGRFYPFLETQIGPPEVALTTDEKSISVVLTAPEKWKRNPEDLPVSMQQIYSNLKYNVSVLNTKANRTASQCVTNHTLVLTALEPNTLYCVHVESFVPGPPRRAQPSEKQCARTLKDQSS
Description: FIGS. 9A-9D show the IL-20 site 3 interface is essential and distinct from other complexes. FIG. 9A is a ribbon diagram showing the site 3 interface between IL-20R1 and IL-20R2. FIG. 9B is a graph showing the importance of the site 3 interface in ternary complex formation. SPR sensograms obtained by injecting cytokines (IL-19 or IL-20, at 250 nM) and/or receptors (IL-20R1 or M3, at 425 nM), as labeled on the figure, over an IL-20R2 coupled biacore chip. Injection of IL-20+IL-20R1 results in a large response consistent with ternary complex formation. However, injection of IL-20+M3, an IL-20R1 site 3 mutant with S190^IL-20R1, W194^IL-20R1, and W207^IL-20R1 mutated to alanine drastically reduces binding due to disruption of ternary complex formation. Similar results are observed for complex formation by IL-19. FIG. 9C is a ribbon diagram of the superposition of the D2 domains of GHR site 1, IL-6R, and IL-20R1. The positions of the D2 domains of GHR site2, GP130, and IL-20R2 are shown, along with a schematic of the differences in their orientations. FIG. 9D is a ribbon diagram showing the putative model of the IL-22/IL-22R1/IL-10R2 complex based on the IL-20 ternary complex structure. […]

[2] = target: T2, IL-19 (human, UniProt Q9UHD0 25-177); test: SPR (Biacore), IL-19 over amine coupled IL-20R2, 1:1 fit
T2 construct: also called Interleukin-19; IL-19a
T2 sequence: B1 chain 1
Description: (§1) FIGS. 12A-12H are graphs showing IL19/IL-20 receptor interactions and complex stability. SPR sensorgrams, data fits (black lines), KD values, and residual errors obtained for complexes described at the top of each panel. Panels are labeled as injected soluble proteins, followed by a semicolon (:), then the protein coupled to chip surface, IL-20R1 or IL-20R2. FIGS. 12A and 12B show injection of IL-19 and IL-20 (max conc.=10 μM, 2 fold diluted to 0.625 μM) over IL-20R1. FIGS. 12C and 12D show injection of IL-19 (max conc.=500 nM, 2-fold diluted to 3.91 nM) or IL-20 (max conc.=2000 nM, 2-fold diluted to 62.5 nM) over IL-20R2. FIGS. 12E-12H show IL-19 and IL-20 (fixed at 250 nM) mixed with different concentrations of IL-20R1, or IL-22R1, (max conc.=1000 nM, 2-fold diluted to 7.81 nM) and injected over IL-20R2. To estimate R1 chain affinity/complex stability, the contribution of the ligand was removed by using the 250 nM IL-19, or IL-20, sensorgram as the blank subtraction. All sensorgrams were fit to 1:1 binding models.
Surface Plasmon Resonance Experiments SPR experiments were performed on Biacore T-100, and T-200, (GE healthcare, Waukesha, Wis.) systems. Soluble IL-20R2 was amine coupled (100-130 RU) to CM5 research grade biacore chips in 10 mM sodium acetate, pH 5.0. IL-20R1-FC and IL-20R2-FC were coupled (60-120 RU) to CM5 chips using an anti-FC Ab coupling kit using the manufacturer's instructions (GE healthcare, Waukesha, Wis.). All binding experiments were performed in running buffer consisting of 10 mM Hepes, pH 7.4, 150 mM NaCl, 0.04% P20, and 0.1 mg/mL bovine serum albumin (Sigma, St. Louis, Mo.). No regeneration was performed between sample injections on IL-20R2 amine-coupled surfaces. IL-20R1-FC and IL-20R2-FC surfaces were regenerated after each sample injection with a 3-minute injection of glycine, pH 1.7. Soluble proteins were injected for 75-90 seconds (30 uL/min) over the surfaces, and the dissociation phase was followed for 75-120 seconds depending on the stability of the complex being analyzed. […]

[3] = target: T3, IL-20 (human, UniProt Q9NYY1 25-176); test: SPR (Biacore), IL-20 over amine coupled IL-20R2, equilibrium affinity (no rate constants)
T3 construct: The crystal model holds residues 24-176; also called Interleukin-20; IL-20b
T3 sequence: B3 chain 1

[4] = target: B5; test: SPR co-injection: IL-20 (1000-31.25 nM) with soluble IL-20R2 fixed at 500 nM over IL-20R1-FC surface, 1:1 fit
Description: (§2) FIGS. 13A-13D are graphs showing stability of IL-19 and IL-20 ternary complexes. Stability of the ternary complexes were determined by co-injecting IL-19+soluble IL-20R2 (FIGS. 13B and 13D), or IL-20+soluble IL-20R2 (FIGS. 13A and 13C), over an IL-20R1-FC coupled surface. The concentration of soluble IL-20R2 in these experiments was fixed at 500 nM. IL-19 and IL-20 concentrations varied from 1000 nM to 31.25 nM (2 fold dilutions). IL-19/soluble IL-20R2 and IL-20/IL-20R2 were also injected over an IL-22R1 coupled surface. The SPR sensorgrams are labeled as injected proteins, followed by a semicolon (:), then the protein coupled to the chip surface, IL-20R1 or IL-22R1. All sensograms yielding binding responses were fit to 1:1 binding models.
(§3) Surface Plasmon Resonance Experiments SPR experiments were performed on Biacore T-100, and T-200, (GE healthcare, Waukesha, Wis.) systems. Soluble IL-20R2 was amine coupled (100-130 RU) to CM5 research grade biacore chips in 10 mM sodium acetate, pH 5.0. IL-20R1-FC and IL-20R2-FC were coupled (60-120 RU) to CM5 chips using an anti-FC Ab coupling kit using the manufacturer's instructions (GE healthcare, Waukesha, Wis.). All binding experiments were performed in running buffer consisting of 10 mM Hepes, pH 7.4, 150 mM NaCl, 0.04% P20, and 0.1 mg/mL bovine serum albumin (Sigma, St. Louis, Mo.). No regeneration was performed between sample injections on IL-20R2 amine-coupled surfaces. IL-20R1-FC and IL-20R2-FC surfaces were regenerated after each sample injection with a 3-minute injection of glycine, pH 1.7. Soluble proteins were injected for 75-90 seconds (30 uL/min) over the surfaces, and the dissociation phase was followed for 75-120 seconds depending on the stability of the complex being analyzed. Where possible, the resultant sensorgrams were fit to 1:1 binding models using Biacore T-200 evaluation software version 1.

[5] = target: T4, IL-22R1 (sIL-22R1DDQ) (Homo sapiens (Human), UniProt Q8N6P7 16-226, limits assumed); test: SPR co-injection: IL-20 (1000-31.25 nM) with soluble IL-20R2 fixed at 500 nM over IL-22R1 coupled surface, 1:1 fit
T4 chain: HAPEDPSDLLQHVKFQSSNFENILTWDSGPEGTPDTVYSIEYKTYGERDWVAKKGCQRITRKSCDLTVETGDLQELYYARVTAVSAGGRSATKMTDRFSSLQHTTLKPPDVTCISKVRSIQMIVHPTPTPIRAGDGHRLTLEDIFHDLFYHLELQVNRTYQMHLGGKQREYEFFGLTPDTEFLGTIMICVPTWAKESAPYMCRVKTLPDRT
Description: as §2, §3

[6] = target: T5, IL-22 (Homo sapiens (Human), UniProt Q9GZX6 35-179, limits assumed); test: SPR, IL-22 as analyte over IL22R1ddq-FCkh (MONO) as ligand
T5 construct: also called IL-22 wt
T5 sequence: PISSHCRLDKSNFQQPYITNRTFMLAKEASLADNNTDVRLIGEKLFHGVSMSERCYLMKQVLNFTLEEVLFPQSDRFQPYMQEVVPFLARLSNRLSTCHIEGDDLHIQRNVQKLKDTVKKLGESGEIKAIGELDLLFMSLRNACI

[7] = target: T3, IL-20; test: SPR, site KD as listed in Table 5
[8] = target: T3, IL-20; test: SPR (Biacore), IL-20 (10-0.625 µM) over IL-20R1-fc captured by anti-FC Ab
Description: as §1
(§4) Surface Plasmon Resonance Experiments SPR experiments were performed on Biacore T-100, and T-200, (GE healthcare, Waukesha, Wis.) systems. […] Soluble proteins were injected for 75-90 seconds (30 uL/min) over the surfaces, and the dissociation phase was followed for 75-120 seconds depending on the stability of the complex being analyzed. […]

[9] = target: T2, IL-19; test: SPR, IL-19 (10 µM, 2-fold diluted to 0.625 µM) injected over IL-20R1 (IL-20R1-fc in Table 4)
Description: as §1, §4

## B1
[1]
  binding result: no binding (tested: 425 nM M3 with 250 nM IL-19)

## B2
[2]
  Kd: 36.3 nM
  koff: 0.0398 s⁻¹
  kon: 1.1e+06 M⁻¹ s⁻¹
[3]
  Kd: 870 nM

## B3
[4]
  Kd: 1070 nM
  koff: 0.0168 s⁻¹
  kon: 15700 M⁻¹ s⁻¹
[5]
  Kd: 1160 nM
  koff: 0.238 s⁻¹
  kon: 205000 M⁻¹ s⁻¹

## B4
[6]
  Kd: 3.34 nM

## B5
[7]
  Kd: ~9000 nM
[8]
  Kd: ~9000 nM
[9]
  binding result: no binding (tested: 10 µM)
